Test results as given in publication doi:10.1101/154823 (bioRxiv, 2017).

Target: T1, GDF8 growth factor dimer (human, UniProt O14793 267-375, disulfide-linked dimer)
T1 sequence (looked up): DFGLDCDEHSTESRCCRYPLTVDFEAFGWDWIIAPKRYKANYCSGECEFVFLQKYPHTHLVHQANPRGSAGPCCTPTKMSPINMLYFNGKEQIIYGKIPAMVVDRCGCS
Assay: HDX-MS

B1: N-prodomain fragment of GDF8 (N-terminal 15 kDa TLD-cleaved prodomain fragment) (domain or fragment, human, UniProt O14793 24-98, looked up)
chain: NENSEQKENVEKEGLCNACTWRQNTKSSRIEAIKIQILSKLRLETAPNISKDVIRQLLPKAPPLRELIDQYDVQR
modifications: predicted N-linked glycan attachment site (printed as Asn-71 in the text, Asn48 in Figure 1A)
B1: binds.
